Measured values from patent US20060275803A1, “Rat and mouse members of the CRISP family of genes” (Wyeth, priority 2005, published 2006).

Each sequence was assayed against T1, rCRISPA (rCRISP1) (Rattus norvegicus, UniProt P12020) (assay: Protease activity screen: cleavage of substrate peptides by native rCRISPA (+DANA protocol), measured by fluorescence). Conditions: 5 μM substrate peptide, 1 μg enzyme, 100 mM NaCl, 25 mM Tris-Cl, pH 7.5; fluorescence at ten minute intervals for 130 minutes; FIG. 13.
T1 construct: Native rCRISPA (rCRISP1) protein, purified with DANA present; from tissue; host or cells: rat epididymis
T1 sequence (P12020 20-246): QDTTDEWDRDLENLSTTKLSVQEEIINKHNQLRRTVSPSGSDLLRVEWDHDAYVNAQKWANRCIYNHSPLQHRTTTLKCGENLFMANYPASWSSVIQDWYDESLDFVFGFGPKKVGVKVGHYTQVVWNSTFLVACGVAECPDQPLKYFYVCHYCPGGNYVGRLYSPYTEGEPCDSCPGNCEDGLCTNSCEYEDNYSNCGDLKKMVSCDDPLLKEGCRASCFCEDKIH
Type: biochemical
Procedure: FIG. 13 is a graph showing rCRISPA (rCRISP1) protease activity (assay conditions: 5 μM substrate peptide, 1 μg enzyme, 100 mM NaCl, 25 mM Tris-Cl, pH 7.5). A. Cleaved peptides A04 (RGARARLG), N08 (RKRRAPLA), N12 (AKRAASQI), N17 (RKRRAVLT), B22 (APQRFGKK), B17 (RQRYGKRS), B23 (RVKRYRQS), H03 (RNKRAVQG). B. Cleaved peptides B20 (PQRFGRNT), C16 (RVLGLKAH), J21 (LRNRAQSG), H07 (RVKRQVRS), H11 (RRLLRAIP), N05 (RARRELAP), H01 (RKKRSTKK), O22 (GGVRGPRV), O16 (AATRRQAV), O23 (KNVAMQKG), G24 (RRKRSTRE), A09 (RMRRYADA), M02 (EKQRIIGG), H17 (NGLRADPM). C. Uncleaved peptides L16 (KTPRWGG), N10 (FYRADQPR), B11 (AAGVAPLS), J03 (PQLHSTGG), C01 (GPQGLLGA), K11 (VIPRSGGS), M07 (GLQRALEI), A01 (WQGGRRKF), H02 (RAKRSVHF), A10 (SAARPAPP), M16 (RSRREADL), A05 (SYRKVLGQ), M18 (VHRDMAAR), C23 (RDAQAHPG), M09 (GSQHIRAE), E19 (RLGREGVQ), D06 (ALAEAMKK).
Native rCRISPA (rCRISP1) protein, purified with DANA present (see Example 4), was screened for the ability to cleave 360 unique peptides using the commercially available peptide substrate set (catalog # PrSS-360-75, JPT Peptide Technologies, Springfield, Va.). […] The substrate peptides cleaved by rCRISPA in this assay are represented by blue and green traces noted in FIG. 13. Peptides that were not cleaved by rCRISPA are also noted in FIG. 13.
For “RQRYGKRS [B17, substrate peptide of the commercial peptide substrate set PrSS-360-75, JPT Peptide Technologies]”, the “cleavage of substrate peptide by rCRISPA (rCRISP1) protease activity” value (“cleavage of substrate peptide by rCRISPA” below) was “Cleaved”. In the case of “GSQHIRAE [M09, substrate peptide of the commercial peptide substrate set PrSS-360-75, JPT Peptide Technologies]”, the “cleavage of substrate peptide by rCRISPA” value is reported as “Uncleaved”. For “WQGGRRKF [A01, substrate peptide of the commercial peptide substrate set PrSS-360-75, JPT Peptide Technologies]”, the “cleavage of substrate peptide by rCRISPA” value was “Uncleaved”. For “RDAQAHPG [C23, substrate peptide of the commercial peptide substrate set PrSS-360-75, JPT Peptide Technologies]”, the “cleavage of substrate peptide by rCRISPA” value was “Uncleaved”. In the case of “RVKRYRQS [B23, substrate peptide of the commercial peptide substrate set PrSS-360-75, JPT Peptide Technologies]”, the “cleavage of substrate peptide by rCRISPA” value is reported as “Cleaved”. In the case of “VHRDMAAR [M18, substrate peptide of the commercial peptide substrate set PrSS-360-75, JPT Peptide Technologies]”, the “cleavage of substrate peptide by rCRISPA” value is reported as “Uncleaved”.
